Publication doi:10.1101/2023.02.18.529070 (bioRxiv, 2023)
Each block holds one binder with its values, some of them ahead of it.

Molecular target: recombinant human HER3 extracellular domain (human, UniProt P21860 20-643)
Assay: BLI

recombinant human HER3 extracellular domain, sequence (P21860 20-643): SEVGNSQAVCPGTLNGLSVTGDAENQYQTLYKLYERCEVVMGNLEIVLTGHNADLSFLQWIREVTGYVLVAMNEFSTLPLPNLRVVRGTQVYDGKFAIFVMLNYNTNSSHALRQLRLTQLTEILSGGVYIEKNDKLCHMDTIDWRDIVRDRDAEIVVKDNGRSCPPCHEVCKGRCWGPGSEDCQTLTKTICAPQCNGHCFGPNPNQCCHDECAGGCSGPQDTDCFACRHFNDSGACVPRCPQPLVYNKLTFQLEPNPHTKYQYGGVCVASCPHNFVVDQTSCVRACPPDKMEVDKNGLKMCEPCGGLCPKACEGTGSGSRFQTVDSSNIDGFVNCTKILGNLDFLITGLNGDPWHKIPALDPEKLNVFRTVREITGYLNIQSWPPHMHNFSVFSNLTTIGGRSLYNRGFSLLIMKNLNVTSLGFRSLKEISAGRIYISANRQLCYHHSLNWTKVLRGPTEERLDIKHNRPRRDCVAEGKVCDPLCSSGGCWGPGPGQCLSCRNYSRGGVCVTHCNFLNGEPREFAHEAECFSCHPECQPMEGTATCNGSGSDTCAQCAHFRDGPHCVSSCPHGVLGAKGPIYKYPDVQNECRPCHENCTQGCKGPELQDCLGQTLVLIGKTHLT

binding result: binds
B1: neuregulin-beta1 (Ser 2-Lys 246 N-terminal fragment) (ligand, human, UniProt Q02297-6 2-246, looked up)
chain: SERKEGRGKGKGKKKERGSGKKPESAAGSQSPALPPRLKEMKSQESAAGSKLVLRCETSSEYSSLRFKWFKNGNELNRKNKPQNIKIQKKPGKSELRINKASLADSGEYMCKVISKLGNDSASANITIVESNEIITGMPASTEGAYVSSESPIRISVSTEGANTSSSTSTSTTGTSHLVKCAEKEKTFCVNGGECFMVKDLSNPSRYLCKCPNEFTGDRCQNYVMASFYKHLGIEFMEAEELYQK

Kd: 100 nM | fold binding affinity against neuregulin-HER3: > 3 fold
B2: recombinant human LRG1 (leucine-rich alpha-2-glycoprotein 1) (ligand, UniProt P02750 36-347, looked up)
chain: VTLSPKDCQVFRSDHGSSISCQPPAEIPGYLPADTVHLAVEFFNLTHLPANLLQGASKLQELHLSSNGLESLSPEFLRPVPQLRVLDLTRNALTGLPPGLFQASATLDTLVLKENQLEVLEVSWLHGLKALGHLDLSGNRLRKLPPGLLANFTLLRTLDLGENQLETLPPDLLRGPLQLERLHLEGNKLQVLGKDLLLPQPDLRYLFLNGNKLARVAAGAFQGLRQLDMLDLSNNSLASVPEGLWASLGQPNWDMRDGFDISGNPWICDQNLSDLYRWLQAQKDKMFSQNDTRCAGPEAVKGQTLLAVAKSQ
